Experimental data published in patent US11491212.

Sequence of Factor X, P00742 (P00742 whole entry, looked up): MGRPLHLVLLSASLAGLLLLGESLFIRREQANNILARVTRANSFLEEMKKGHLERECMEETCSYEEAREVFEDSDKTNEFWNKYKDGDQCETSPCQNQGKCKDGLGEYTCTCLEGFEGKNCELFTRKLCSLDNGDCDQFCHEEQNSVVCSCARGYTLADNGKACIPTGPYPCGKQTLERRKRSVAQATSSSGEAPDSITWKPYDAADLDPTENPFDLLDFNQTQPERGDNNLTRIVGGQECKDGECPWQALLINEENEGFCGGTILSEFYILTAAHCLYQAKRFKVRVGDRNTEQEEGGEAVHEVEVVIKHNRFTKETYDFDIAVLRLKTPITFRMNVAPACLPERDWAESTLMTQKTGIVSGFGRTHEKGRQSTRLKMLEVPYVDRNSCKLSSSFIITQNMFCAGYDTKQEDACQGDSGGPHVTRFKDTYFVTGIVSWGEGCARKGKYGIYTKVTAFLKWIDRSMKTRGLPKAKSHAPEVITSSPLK
Sequence of Factor X (FX), P00742 (P00742 whole entry, looked up): as above

Protein	KM (Factor X (FX), P00742) [µM]	kcat (Factor X (FX), P00742) [s⁻¹]	kcat/KM (Factor X, P00742) [M⁻¹ s⁻¹]
FIXa-D104N/K106S/R318Y/R338E/T343R/R403E/E410N (protein) chain 1: not shown chain 2: not shown	0.0266	5.7	2.2e+08
FIXa-R318Y/R338E/T343R/N346D/R403E/E410N (protein) chain 1: not shown chain 2: not shown	0.067	5.4	8.2e+07
FIXa-R318Y/R338E/T343R/N346Y/R403E/E410N (protein) chain 1: not shown chain 2: not shown	0.0158	4.6	3.1e+08
FIXa-R318Y/R338E/N346Y/R403E/E410N (protein) chain 1: not shown chain 2: not shown	0.0281	3.4	1.2e+08
FIXa-Y155F/R318Y/R338E/T343R/R403E/E410N (protein) chain 1: not shown chain 2: not shown	0.0272	7.8	3e+08
